The assay has as its target thioredoxin (endogenous, mouse mediobasal hypothalamus extracts) (mouse) (UniProt P10639). The assay is described as follows: cell-based or functional assay.
Sequence of UniProt P10639 (P10639 whole entry): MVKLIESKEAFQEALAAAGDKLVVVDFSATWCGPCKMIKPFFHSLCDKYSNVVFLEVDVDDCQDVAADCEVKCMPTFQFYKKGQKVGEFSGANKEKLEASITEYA

Substance “human thioredoxin-interacting protein (hTXNIP) (from UniProt Q9H3M7 1-391)” registered a thioredoxin activity in the MBH (insulin-reducing assay) (fold decrease) of 2. As to “thioredoxin-interacting protein (TXNIP), endogenous mouse (from UniProt Q8BG60 1-397)”, the thioredoxin activity in the MBH (insulin-reducing assay) after TXNIP shRNA knockdown amounted to 50 % increase.

Values taken from US20130224222A1.
